Assay results taken from patent US20250154231A1.
Where two headings read alike, the source gives them in different places.

Tests used:
Assay in all cases: cell-based or functional assay
[1] = molecular target: SARS-CoV-2 Omicron BA.1 spike (S) protein, pseudovirus construct (SARS-CoV-2) (UniProt P0DTC2)
[2] = molecular target: SARS-CoV-2 Omicron BA.1.1 spike (S) protein, pseudovirus construct (SARS-CoV-2) (UniProt P0DTC2)
[3] = molecular target: SARS-CoV-2 Omicron BA.2 spike (S) protein, pseudovirus construct (SARS-CoV-2) (UniProt P0DTC2)
[4] = molecular target: SARS-CoV-2 Omicron BA.3 spike (S) protein, pseudovirus construct (SARS-CoV-2) (UniProt P0DTC2)
[5] = molecular target: SARS-CoV-2 Victoria spike (S) protein (SARS-CoV-2) (UniProt P0DTC2)
[6] = molecular target: SARS-CoV-2 spike (S) protein, Omicron BA.2.75.2 (SARS-CoV-2) (UniProt P0DTC2)
[7] = molecular target: SARS-CoV-2 spike (S) protein, Omicron BA.2.75 (SARS-CoV-2) (UniProt P0DTC2)
[8] = molecular target: SARS-CoV-2 spike (S) protein, Omicron BJ.1 (SARS-CoV-2) (UniProt P0DTC2)
[9] = molecular target: SARS-CoV-2 spike (S) protein, Omicron BA.2.3.20 (SARS-CoV-2) (UniProt P0DTC2)
[10] = molecular target: SARS-CoV-2 spike (S) protein, Omicron BA.4/5 (SARS-CoV-2) (UniProt P0DTC2)
[11] = molecular target: SARS-CoV-2 spike (S) protein, Victoria strain (SARS-CoV-2) (UniProt P0DTC2)
[12] = molecular target: SARS-CoV-2 spike (S) protein, Omicron BA.4.6 (SARS-CoV-2) (UniProt P0DTC2)
[13] = molecular target: SARS-CoV-2 spike (S) protein, Omicron BA.2 (SARS-CoV-2) (UniProt P0DTC2)
[14] = molecular target: SARS-CoV-2 spike (S) protein, Omicron BA.2.75 (SARS-CoV-2) (UniProt P0DTC2); remark: listed apart in the source
[15] = molecular target: SARS-CoV-2 Delta spike (S) protein (SARS-CoV-2) (UniProt P0DTC2)
[16] = molecular target: SARS-CoV-2 spike (S) protein, Omicron BA.1.1 (SARS-CoV-2) (UniProt P0DTC2)
[17] = molecular target: SARS-CoV-2 Omicron BA.2 spike (S) protein (SARS-CoV-2) (UniProt P0DTC2)
[18] = molecular target: SARS-CoV-2 spike (S) protein, Omicron BA.4/5 (SARS-CoV-2) (UniProt P0DTC2); remark: listed apart in the source
[19] = molecular target: SARS-CoV-2 spike (S) protein, Omicron BA.3 (SARS-CoV-2) (UniProt P0DTC2)
[20] = molecular target: SARS-CoV-2 spike (S) protein, Victoria strain (SARS-CoV-2) (UniProt P0DTC2); remark: listed apart in the source
[21] = molecular target: SARS-CoV-2 Beta spike (S) protein (SARS-CoV-2) (UniProt P0DTC2)
[22] = molecular target: SARS-CoV-2 spike (S) protein, Omicron BA.1 (SARS-CoV-2) (UniProt P0DTC2)
[23] = molecular target: SARS-CoV-2 Alpha spike (S) protein (SARS-CoV-2) (UniProt P0DTC2)
[24] = molecular target: SARS-CoV-2 Omicron BA.1 spike (S) protein of the live isolate (SARS-CoV-2) (UniProt P0DTC2)
[25] = molecular target: SARS-CoV-2 Omicron BA.1.1 spike (S) protein (SARS-CoV-2) (UniProt P0DTC2)
[26] = molecular target: SARS-CoV-2 Gamma spike (S) protein (SARS-CoV-2) (UniProt P0DTC2)
[27] = molecular target: SARS-CoV-2 spike (S) protein, Omicron BA.4.6 (SARS-CoV-2) (UniProt P0DTC2); remark: listed apart in the source
[28] = molecular target: SARS-CoV-2 spike (S) protein, Omicron BA.2 (SARS-CoV-2) (UniProt P0DTC2); remark: listed apart in the source

Substance: Known Antibody F (ADG10)
- IC50 (ug/ml), pseudovirus [1]: > 10 µg/mL
- IC50 (ug/ml), pseudovirus [2]: > 10 µg/mL
- IC50 (ug/ml), pseudovirus [3]: > 10 µg/mL
- IC50 (ug/ml), pseudovirus [4]: > 10 µg/mL
- IC50 (ug/ml), pseudovirus [5]: 0.007 µg/mL

Substance: Known Antibody G (ADG20)
- IC50 (ug/ml), pseudovirus [1]: 0.348 µg/mL
- IC50 (ug/ml), pseudovirus [2]: 0.253 µg/mL
- IC50 (ug/ml), pseudovirus [3]: > 10 µg/mL
- IC50 (ug/ml), pseudovirus [4]: > 10 µg/mL
- IC50 (ug/ml), pseudovirus [5]: 0.003 µg/mL

Substance: Known Antibody H (ADG30)
- IC50 (ug/ml), pseudovirus [1]: > 10 µg/mL
- IC50 (ug/ml), pseudovirus [2]: > 10 µg/mL
- IC50 (ug/ml), pseudovirus [3]: > 10 µg/mL
- IC50 (ug/ml), pseudovirus [4]: > 10 µg/mL
- IC50 (ug/ml), pseudovirus [5]: 0.014 µg/mL

Substance: Known Antibody I (Ly-CoV-555)
- IC50 (ug/ml), pseudovirus [1]: > 10 µg/mL
- IC50 (ug/ml), pseudovirus [2]: > 10 µg/mL
- IC50 (ug/ml), pseudovirus [3]: > 10 µg/mL
- IC50 (ug/ml), pseudovirus [4]: > 10 µg/mL
- IC50 (ug/ml), pseudovirus [5]: 0.002 µg/mL

Substance: Known Antibody J (Ly-CoV16)
- IC50 (ug/ml), pseudovirus [1]: > 10 µg/mL
- IC50 (ug/ml), pseudovirus [2]: > 10 µg/mL
- IC50 (ug/ml), pseudovirus [3]: > 10 µg/mL
- IC50 (ug/ml), pseudovirus [4]: > 10 µg/mL
- IC50 (ug/ml), pseudovirus [5]: 0.014 µg/mL

Substance: Known Antibody K (S309)
- IC50 (ug/ml), pseudovirus [1]: 0.094 µg/mL
- IC50 (ug/ml), pseudovirus [2]: 0.138 µg/mL
- IC50 (ug/ml), pseudovirus [3]: 0.638 µg/mL
- IC50 (ug/ml), pseudovirus [4]: 0.228 µg/mL
- IC50 (ug/ml), pseudovirus [5]: 0.587 µg/mL

Substance: LY-CoV1404 (bebtelovimab) (antibody)
- IC50, pseudoviral neutralization [6]: 0.002 µg/mL
- IC50, pseudoviral neutralization [7]: 0.002 µg/mL
- IC50, pseudoviral neutralization [8]: > 10 µg/mL
- IC50, pseudoviral neutralization [9]: 0.018 µg/mL
- IC50, pseudoviral neutralization [10]: 0.002 µg/mL
- IC50, pseudoviral neutralization [11]: 0.001 µg/mL
- IC50, pseudoviral neutralization [12]: 0.001 µg/mL
- IC50, pseudoviral neutralization [13]: 0.001 µg/mL

Substance: Ly-CoV16 (antibody)
- IC50, pseudoviral neutralization [6]: > 10 µg/mL
- IC50, pseudoviral neutralization [7]: > 10 µg/mL
- IC50, pseudoviral neutralization [8]: > 10 µg/mL
- IC50, pseudoviral neutralization [9]: > 10 µg/mL
- IC50, pseudoviral neutralization [10]: > 10 µg/mL
- IC50, pseudoviral neutralization [11]: 0.014 µg/mL
- IC50, pseudoviral neutralization [12]: > 10 µg/mL
- pseudovirus neutralisation IC50 [14]: > 10 µg/mL
- IC50, authentic virus neutralization [15]: 0.012 µg/mL
- IC50, pseudoviral neutralization [16]: > 10 µg/mL
- pseudovirus neutralisation IC50 [16]: > 10 µg/mL
- IC50, authentic virus neutralization [17]: > 10 µg/mL
- IC50, pseudoviral neutralization [18]: > 10 µg/mL
- pseudovirus neutralisation IC50 [18]: > 10 µg/mL
- IC50, pseudoviral neutralization [19]: > 10 µg/mL
- pseudovirus neutralisation IC50 [19]: > 10 µg/mL
- IC50, pseudoviral neutralization [20]: 0.014 µg/mL
- pseudovirus neutralisation IC50 [20]: 0.014 µg/mL
- IC50, authentic virus neutralization [21]: > 10 µg/mL
- IC50, pseudoviral neutralization [22]: > 10 µg/mL
- pseudovirus neutralisation IC50 [22]: > 10 µg/mL
- IC50, authentic virus neutralization [23]: 3.23 µg/mL
- IC50, authentic virus neutralization [24]: > 10 µg/mL
- IC50, authentic virus neutralization [25]: > 10 µg/mL
- IC50, authentic virus neutralization [5]: 0.034 µg/mL
- IC50, authentic virus neutralization [26]: > 10 µg/mL
- IC50, pseudoviral neutralization [27]: > 10 µg/mL
- IC50, pseudoviral neutralization [28]: > 10 µg/mL
- pseudovirus neutralisation IC50 [28]: > 10 µg/mL

Substance: Ly-CoV-555 (antibody)
- IC50, authentic virus neutralization [15]: 8.31 µg/mL
- IC50, authentic virus neutralization [17]: > 10 µg/mL
- IC50, authentic virus neutralization [21]: > 10 µg/mL
- IC50, authentic virus neutralization [23]: 0.009 µg/mL
- IC50, authentic virus neutralization [24]: > 10 µg/mL
- IC50, authentic virus neutralization [25]: > 10 µg/mL
- IC50, authentic virus neutralization [5]: 0.006 µg/mL
- IC50, authentic virus neutralization [26]: > 10 µg/mL
